The record followed here is patent US20230416383A1.

Among the targets are Human FcγRIIIb (human) (UniProt O75015); Human FcγRIIa (human) (UniProt P12318); Human FcγRIIb (human) (UniProt P31994).
Experiment in all cases: SPR, mean +/- SD (n = 3)
In general terms: Surface plasmon resonance follows binding to a sensor surface in real time, without labels.

Assay [1] addresses Cynomolgus FcRn (cynomolgus monkey) (UniProt Q8SPV9).
Assay [2] addresses Cynomolgus FcγRI (cynomolgus monkey).
Assay [3] deals with Cynomolgus FcγRIII (cynomolgus monkey) (UniProt Q8SPW2).
Chain of UniProt Q8SPW2 (Q8SPW2 17-208 limits assumed): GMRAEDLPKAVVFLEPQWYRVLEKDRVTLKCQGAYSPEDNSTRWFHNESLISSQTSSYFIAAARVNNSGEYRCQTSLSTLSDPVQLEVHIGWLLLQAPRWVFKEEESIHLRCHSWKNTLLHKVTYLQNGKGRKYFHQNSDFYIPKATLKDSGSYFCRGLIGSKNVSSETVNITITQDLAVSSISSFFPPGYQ
Assay [4] deals with Cynomolgus FcγRIIa (cynomolgus monkey).
The target in assay [5] is Cynomolgus FcγRIIb (cynomolgus monkey).
Assay [6] addresses human FcγRI (hCD64) (human) (UniProt P12314).
Chain of UniProt P12314 (P12314 16-288 limits assumed): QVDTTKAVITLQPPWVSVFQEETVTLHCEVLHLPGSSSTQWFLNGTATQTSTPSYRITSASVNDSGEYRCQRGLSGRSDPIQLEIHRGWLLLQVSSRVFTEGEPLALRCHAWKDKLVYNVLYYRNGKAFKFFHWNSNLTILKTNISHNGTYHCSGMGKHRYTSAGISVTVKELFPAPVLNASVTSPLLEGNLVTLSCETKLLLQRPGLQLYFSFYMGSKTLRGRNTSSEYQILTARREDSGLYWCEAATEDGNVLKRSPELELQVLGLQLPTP
Assay [7] deals with recombinant Human Fc gamma RIIIA/CD16a (V176) (human) (UniProt P08637).
Assay [8] concerns the target recombinant Human Fc gamma RIIIA/CD16a (V176F) (human) (UniProt P08637).

Chain of UniProt O75015 (O75015 17-200 limits assumed): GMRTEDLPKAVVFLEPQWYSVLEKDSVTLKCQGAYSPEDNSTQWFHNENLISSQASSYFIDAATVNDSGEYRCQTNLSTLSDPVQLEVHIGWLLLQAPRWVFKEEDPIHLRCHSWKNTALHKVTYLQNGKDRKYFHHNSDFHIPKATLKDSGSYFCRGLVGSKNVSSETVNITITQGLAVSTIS
Chain of UniProt P31994 (P31994 46-217 limits assumed): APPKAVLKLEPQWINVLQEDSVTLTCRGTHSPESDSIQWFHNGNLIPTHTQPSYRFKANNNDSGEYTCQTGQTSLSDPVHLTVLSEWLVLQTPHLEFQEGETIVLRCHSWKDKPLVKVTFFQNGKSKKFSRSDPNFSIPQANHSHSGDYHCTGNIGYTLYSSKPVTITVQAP
Chain of UniProt P12318 (P12318 36-218 limits assumed): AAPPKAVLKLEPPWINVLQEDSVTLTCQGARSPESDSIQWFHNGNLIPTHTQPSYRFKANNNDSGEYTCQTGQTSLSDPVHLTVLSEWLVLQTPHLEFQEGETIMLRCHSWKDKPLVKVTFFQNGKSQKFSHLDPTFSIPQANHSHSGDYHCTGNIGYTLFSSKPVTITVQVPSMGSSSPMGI

With Human IgG1 control (antibody), the dissociation constant Kd (in general, the equilibrium constant for the complex coming apart) in [1] was 0.237 µM; in [2] it was 0.018 µM; in assay [3] it was 0.58 µM; in [4], 6.34 µM; in assay [5] it was 2.32 µM; in the assay with Human FcγRIIIb (human), 7.54 µM. Besides, the Kd was 1.57 µM with Human FcγRIIa (human); 4.23 µM with Human FcγRIIb (human); 0.0002 µM in assay [6]; 0.575 µM in assay [7]; 2.82 µM in assay [8].
